Patent US12576170B2, “Rk polypeptide radiopharmaceutical targeting HER2 and preparation method thereof” (BEIJING GILUNTIDE PHARMACEUTICAL CO., LTD., priority 2019, dated 2026)

Legend:
[1] = test system: MCF7 of no HER2 expression; test: cell binding assay, MCF7 cells; set-up: species or system Human
Procedure: (§1) The rk polypeptide radiopharmaceuticals were sampled for radioactive HPLC analysis. The HPLC was conducted in an Agilent 1260 HPLC system equipped with a YMC-Pack ODS-A analytic column (250× 4.6 mm, I.D. S-5 μm, 12 nm), and a 20-min gradient elution was performed at a flow rate of 1 mL/min, wherein the mobile A phase was deionized water (containing 0.05% TFA) and the mobile B phase was acetonitrile (containing 0.05% TFA). The elution gradients were 90% A and 10% B at beginning, and 30% A and 70% B at 20 min. The labeling rate of ^99mTc-HYNIC-PEG4-(Aoc-rk)2 was >95%, and the radiochemical purity was >98% as measured by HPLC with a Sep-Pak C18 column. The results of a binding affinity assay of HYNIC-PEG4-(Aoc-rk)2 to HER2 are shown in FIG. 3: Human breast cancer cells SKBR3 of high HER2 expression and MCF7 of no HER2 expression were used as experimental samples, and ^99mTc-HYNIC-PEG4-(Aoc-rk)2 was used as a radioactive ligand specifically binding to HER2 receptor. In this cell binding assay, the binding capacities of ^99mTc-HYNIC-PEG4-(Aoc-rk)2 to SKBR3 and MCF7 were measured, with a blocking group treated with excessive HYNIC-PEG4-(Aoc-rk)2 to verify the binding specificity of ^99mTc-HYNIC-PEG4-(Aoc-rk)2 to SKBR3.

[2] = test system: HER2-positive model (SKBR3 breast tumor model); conditions: in vivo
Excerpt: This is especially critical for breast cancer tumors in situ in the thorax, since the contrast agent ^99mTc-HPArk2 of the present invention is more advantageous in imaging breast cancer lesions in situ.
The specific difference of in vivo pharmacokinetics between the present invention and the radiopharmaceutical disclosed in Patent No. CN 109045313 A is shown in FIG. 11. FIG. 11 illustrates the uptake in tumor and comparison of data corresponding to the images in FIG. 10. […] FIG. 11 panel B illustrates the results of calculations from FIG. 11 panel A. The uptakes in tumor and the organs were compared and analyzed. […] As is also seen in FIG. 10, a smaller tumor was visualized by ^99mTc-HPArk2 imaging, and the imaging effect is guaranteed. […] Therefore, the contrast ratio for imaging is better, and particularly, the low uptake in heart and liver in the chest cavity may facilitate clear imaging of the in-situ tumor of the breast cancer.

[3] = target: T1, HER2 (Homo sapiens, UniProt P04626); test: correlation between uptake in tumor and HER2 expression level in tumor models; type: in vivo, mouse; set-up: tumor cells with different HER2 expression levels, including human breast cancer cell lines SKBR3, MCF7 and MDA-MB-468; endogenous in cells; host or cells: SKBR3, MCF7, MDA-MB-468, HT29, BxPC3 human tumour cells as xenografts in mice; conditions: SKBR3 (high), HT29 (moderate), BxPC3 (low HER2) tumor models
Excerpt: (§2) Thus the polypeptide is suitable for delayed imaging and more beneficial for tumor diagnosis.
Correlation between uptake of ^99mTc-HYNIC-PEG4-(Aoc-rk)2 in tumor and HER2 expression level: tumor cells with different HER2 expression levels, including human breast cancer cell lines SKBR3, MCF7 and MDA-MB-468, human colorectal cancer cell line HT29 and human pancreatic cancer cell line BxPC3, were selected and subjected to flow cytometry for quantitative analysis of HER2 expression in cells. Then the tumor models of the cells were subjected to SPECT/CT imaging, and the uptake in tumor was quantitatively analyzed. Finally, the correlation between HER2 expression and the uptake in tumor was investigated.
Flow cytometry: The cells were digested using 0.25% EDTA/pancreatin, blocked for 15 min, centrifuged, washed with PBS, and divided into a treatment group and a control group. […] The two groups were incubated for 0.5 h in the dark at 4° C., washed for 3 times using cold PBS, and analyzed on a flow cytometer. The mean fluorescence intensity (MFI) of the bound antibody on each cell was calculated through a standard flow cytometry curve. […]
Analysis of correlation between HER2 expression level and uptake in tumor: the linear relationship between HER2 expression level (MFI) and uptake in tumor (% ID/g) was plotted using prism 7.0 software, and the R^2 value was calculated.

[4] = test system: HER2-negative EGFR-positive MDA-MB-468 breast cancer model; test: imaging in HER2-negative/EGFR-positive tumor model; type: in vivo; conditions: FIG. 13
Excerpt: Since EGFR and HER2 are members of the same family and have similar structures, they are difficult to be distinguished by targeting molecules. As such, false positives and false negatives are inevitable when detecting tumors.

[5] = test system: SKBR3 breast tumor model; set-up: species or system NOD SCID mice; conditions: mouse, in vivo
Procedure: as §2
SPECT/CT imaging: Different tumor models with similar tumor sizes were selected, administered with 1 mCi ^99mTc-HYNIC-PEG4-(Aoc-rk)2 through tail vein, and subjected to SPECT/CT imaging 0.5 h later. The SPECT images were reconstructed after imaging, fused with the CT image to give 3D images of the mouse, and the tumor lesion was extracted by In VivoScope software for quantitative analysis.
Preparation of ^99mTc-HYNIC-PEG4-(PEG4-rk) 2:500 μL of a mixture containing 5.0 mg of trisodium triphenylphosphine-3,3′, 3″-trisulfonate (TPPTS), 6.5 mg of tricine, 38.5 mg of disodium succinate hexahydrate, 12.7 mg of succinic acid and 50 μg of HYNIC-PEG4-(PEG4-rk)2 was prepared in a 10 mL vial and lyophilized. 1.0-1.5 mL of Na^99mTcO4 solution (10-35 mCi) was added to the lyophilized powder. The vial was incubated in a water bath at 100° C. for 20-25 min, and cooled at room temperature for 10 min after the reaction is completed to give the rk polypeptide radiopharmaceutical. The rk polypeptide radiopharmaceuticals were sampled for radioactive HPLC analysis. The HPLC was conducted in an Agilent 1260 HPLC system equipped with a YMC-Pack ODS-A analytic column (250× 4.6 mm, I.D. S-5 μm, 12 nm), and a 20-min gradient elution was performed at a flow rate of 1 mL/min, wherein the mobile A phase was deionized water (containing 0.05% TFA) and the mobile B phase was acetonitrile (containing 0.05% TFA). The elution gradients were 90% A and 10% B at beginning, and 30% A and 70% B at 20 min. The labeling rate of ^99mTc-HYNIC-PEG4-(PEG4-rk)2 was >95%, and the radiochemical purity was >98% as measured by a Sep-Pak C18 column.

[6] = test system: breast cancer; type: in vivo, human patients
Procedure: SPECT/CT imaging of ^99mTc-HYNIC-PEG4-(Aoc-rk)2 in breast cancer patients: with approval by the Ethics Review Committee of the Peking Union Medical College Hospital and informed consent, 20 female patients with suspected breast cancer by molybdenum target X-ray or ultrasonography were recruited and subjected to SPECT/CT imaging and PET/CT imaging 1 week before surgery. The patients were administered intravenously with 11.1 MBq (0.3 mCi)/kg body weight of ^99mTc-HYNIC-PEG4-(Aoc-rk)2 30 min before SPECT/CT scan, and 5.6 MBq (0.15 mCi)/kg body weight of ^18F-FDG 60 min before PET/CT scan.

[7] = test system: SKBR3 of high HER2 expression; test: cell binding assay, SKBR3 cells; set-up: species or system Human
Procedure: as §1

[8] = set-up: species or system NOD SCID mice; conditions: mouse, in vivo, iv
Procedure: The biodistribution of ^99mTc-HYNIC-PEG4-(Aoc-rk)2 in tumor-bearing mice: NOD SCID mice bearing SKBR3 tumor were randomized with 4 mice in each group. Each group of mice were injected with different ^99mTc-labeled polypeptides via tail vein, and sacrificed at 30 and 60 min after injection. Samples of blood and major organs were collected, weighed and measured for radiological counting, and the decay-corrected percent injection dose rate per gram of tissue (% ID/g) was calculated. The results of the experiment are shown in FIG. 8, in which the uptake in tumor at 30 min was 3.7% ID/g, and the uptake was low in blood and organs other than kidney.

[9] = target: T1, HER2; test: HER2 binding specificity detection at protein and cell level; conditions: protein and cellular levels, FIG. 12
[10] = water solubility; type: physicochemical; conditions: compared with refvffly polypeptide

CC(C)C[C@@H](NC(=O)[C@@H](CCCNC(=N)N)NC(=O)[C@@H](CC(C)C)NC(=O)[C@@H](CCC(=O)O)NC(=O)[C@@H](Cc1c[nH]c2ccccc12)NC(=O)[C@@H](CC(N)=O)NC(=O)[C@@H](CCCNC(=N)N)NC(=O)CCCCCCCNC(=O)CC[C@H](NC(=O)CCOCCOCCOCCOCCNC(=O)c1ccc(NN)nc1)C(=O)NCCCCCCCC(=O)N[C@H](CCCNC(=N)N)C(=O)N[C@H](CC(N)=O)C(=O)N[C@H](Cc1c[nH]c2ccccc12)C(=O)N[C@H](CCC(=O)O)C(=O)N[C@H](CC(C)C)C(=O)N[C@H](CCCNC(=N)N)C(=O)N[C@H](CC(C)C)C(=O)N[C@H](CCCCN)C(=O)O)C(=O)N[C@H](CCCCN)C(=O)O [^99mTc-HYNIC-PEG4-(Aoc-rk)2, metal not drawn]
binding rate per 10^5 cells [1]: 1.14 % per 10^5 cells
hepatic uptake (FIG. 10) [2]: lowest
ratios of tumor to normal tissues such as blood, heart, liver, spleen, intestine and stomach [2]: relatively higher
uptake in blood, heart, liver, spleen, intestine, stomach, bone and other tissues [2]: relatively lower
uptake in tumor (biodistribution, FIG. 11) [2]: relatively higher uptake in tumor than those of ^99mTc-HP4-ref and ^99mTc-HP24-ref
uptake in tumor (image quantification, FIG. 10) [2]: higher uptake in tumor than that of ^99mTc-HP24-ref, with no significant difference from ^99mTc-HP4-ref
uptake ratio of tumor to liver [2]: highest
relation of uptake to HER2 expression level (SPECT/CT) [3]: linearly related to the expression level of HER2
imaging result in HER2-negative EGFR-positive model [4]: negative result
tumor visualization in delayed imaging [5]: still clearly visualized
uptake in tumor (SPECT/CT) [5]: clearly visible and significantly higher than that of the monomer
uptake in tumor, Herceptin blocking group [5]: substantially unchanged
uptake in tumor, cold peptide blocking group [5]: significantly reduced uptake in tumor
whole-body background (SPECT/CT) [5]: clean whole-body background
patients with lymph node metastasis in whom metastasis was shown ([6]; 5 of 6 patients): 83%
patients with pathologically diagnosed breast cancer whose tumor was accurately imaged ([6]; 14 of 15 patients, 11.1 MBq/kg i.v., 30 min before scan): 93%
adverse effects during the clinical trial ([6]; human, in vivo): No adverse effect related to the radiopharmaceutical was found
binding rate per 10^5 cells, blocking group ([7]; SKBR3 blocking group treated with excessive HYNIC-PEG4-(Aoc-rk)2): 1.24 % per 10^5 cells
binding rate per 10^5 cells ([7]; SKBR3 cells): 4.49 % per 10^5 cells
tissue uptake at 0.5 h [8]: 3.7 %ID/g
HER2 specificity [9]: good specificity at both protein and cellular levels

CC(C)C[C@@H](NC(=O)[C@@H](CCCNC(=N)N)NC(=O)[C@@H](CC(C)C)NC(=O)[C@@H](CCC(=O)O)NC(=O)[C@@H](Cc1c[nH]c2ccccc12)NC(=O)[C@@H](CC(N)=O)NC(=O)[C@H](N)CCCNC(=N)N)C(=O)N[C@H](CCCCN)C(=O)O [rk polypeptide, Arg-Asn-Trp-Glu-Leu-Arg-Leu-Lys]
water solubility [10]: superior to that of refvffly polypeptide
